Source: publication doi:10.1101/2021.03.31.438001

Target: Pr17 (OAD22177.1), secreted protein of Candidatus Thiomargarita nelsonii (Candidatus Thiomargarita nelsonii)
Experiment: non-reducing SDS-PAGE

Pr17 (OAD22177.1), secreted protein of Candidatus Thiomargarita nelsonii (natural protein)
stoichiometry N: 2
